Laboratory results taken from PMC8210614, “IRDye800CW labeled uPAR-targeting peptide for fluorescence-guided glioblastoma surgery: Preclinical studies in orthotopic xenografts” (Theranostics, 2021).
Non-standard residues stand in square brackets, D forms with d. Primed or numbered codes have the meaning given here. Cha = N[C@@H](CC1CCCCC1)C(=O)O; IRDye800CW′ = not defined here; AEEA = NCCOCCOCC(=O)O

Key:
[1] = not given; remark: listed apart in the source
[2] = not given; remark: listed apart in the source
[3] = not given; remark: listed apart in the source
orthotopic PDX GBM = type: in vivo, nude mice; conditions: IRDye800CW-AE344 6 nmol i.v. 3 h before surgery; 5-ALA 0.25 mg/g oral 4-5 h before; NIR surgery followed 5-ALA surgery; 2 animals each
glioma = conditions: cited from earlier work
Description: Gliolan®, the brand name of 5-ALA, was approved for clinical use for GBM resection in Europe in 2007 and by the FDA in 2017. After oral administration, it is metabolized inside the tumor cells into protoporphyrin IX that is fluorescent with an emission peak at 635 nm. […] Further, the frequency of the most common early severe adverse events (hemiparesis, aphasia, convulsions, and epidural hematoma) was 11 of 139 pati ... || GBM as a high-grade glioma is characterized by alterations of the normal brain vasculature resulting in a disrupted leaky BBB [47] manifested on MRI with tumor contrast-enhancement. However, the highly invasive nature of GBM causes single cell invasion into otherwise healthy tissue and proliferation of cells in areas outside of the disrupted BBB region, usually in areas not showing contrast-enhancement on MRI [48]. In contrast, the vasculature and BBB function in low-grade gliomas remains virtually unaltered and intact with normal function. As a consequence, the BBB in both high-grade and ...

[4] = test system: 3D blood-brain barrier (BBB) spheroids; experiment: Uptake into 3D blood-brain barrier spheroids; type: in vitro ADME, human; conditions: 25 µM, overnight incubation 37 °C/5% CO2, confocal, slice 97 µm inside spheroid, three independent experiments; p = 0.0229
Protocol: All cell lines were incubated at 37 °C/5% CO2.
Blood-brain-barrier spheroid assembly and uptake assays: Blood-brain barrier (BBB) spheroids were assembled as previously described [54]. Briefly, 50 µL of 1% agarose (w/v) in Milli-Q water is added to each well of low-binding 96 well plates (Thermo Fisher Scientific) and allowed to cool prior to the addition of cells. Confluent astrocytes, pericytes and hCMEC/D3 were lifted with 0.025% trypsin and resuspended in BBB-working media (Vasculife-Mv with VEGF omitted and 2% normal human serum). 1x10^3 of each cell type is added sequentially to give a total volume of 100 µL per well. BBB-working media was added to each well to a final volume of 200 µL per well. Astrocytes were used between passage 2 and 4, pericytes between passage 4 and 6, and hCMEC/D3 between passages 29 and 30. […]
The following day, spheroids (10 per treatment condition) were pooled by group into low-binding Eppendorf tubes (1.5 mL, Thermo Fisher Scientific) using 0.1% Triton X-100 treated pipette tips and washed 3 times with sterile PBS. […] The extent of uptake into the spheroids was determined by capturing Z-stacks of each spheroid and measuring the integrated density of a region of interest 50µm from the outer boundary of the spheroid using a slice that corresponds to 97µm inside the spheroid [54]. […]

[5] = Ex vivo plasma stability, murine plasma; type: in vitro ADME; conditions: mouse, 37 °C in dark, 2.4 nmol in 1,600 ul plasma, acetonitrile precipitation, HPLC fluorescence detection ex 774/em 798 nm, normalized to 0 h, read-out: intact probe (normalized AUC on HPLC)
Protocol: (§1) For plasma stability 1,600 ul human and murine plasma were separately incubated with 2.4 nmol IRDye800CW-AE344 in 10 ul PBS at 37 °C in dark. 200 ul samples were collected at 0, 0.5, 1, 2, 3, 6, 12 and 24 h. Plasma proteins were precipitated by addition of 200 ul acetonitrile and the samples were centrifuged at 10,000 G for 10 min. The supernatant was collected for analysis. The supernatant from time zero from both the human and mouse serum was analyzed to establish the retention time of the intact IRDye800CW-AE344 on HPLC-MS on a RSLC Dionex Ultimate 3000 (Thermo) instrument coupled to a Bruker QTOF Impact HD II. The column was an Aeris widepore 3.6 µm C4 column (150 × 4.6 mm, Phenomenex) and the solvent system was solvent A: water containing 0.1% Formic acid; solvent B: acetonitrile containing 0.1% formic acid. Method: 0-1 min 5% solvent B, 1-18min 5%-50% solvent B with a flowrate of 1 mL/min. […] All samples were then run using the settings above and the AUC at the 14 min peak was used to calculate the degradation with 0 h for both murine and human plasma as the reference.

[6] = Ex vivo plasma stability, human plasma; type: in vitro ADME; conditions: 37 °C in dark, 2.4 nmol in 1,600 ul plasma, acetonitrile precipitation, HPLC fluorescence detection ex 774/em 798 nm, normalized to 0 h, read-out: intact probe (normalized AUC on HPLC)
Protocol: as §1

[7] = Biodistribution by organ fluorescence imaging; type: in vivo, nude mice; conditions: 3 nmol, 1 h post injection
Protocol: Biodistribution was assessed in animals (n=2) receiving 3 nmol IRDye800CW-AE344 and was euthanized after 1 h for organ dissection and imaging (exposure time: 333 ms). Due to renal excretion, the fluorescence signals in the kidneys were out of scale compared to all the other organs.

liver and kidneys = experiment: Acute toxicity, liver and kidney histology; type: in vivo, nude mice; conditions: 24 h post injection of 12 nmol, 5 animals
Protocol: Acute toxicity was evaluated on the liver and kidneys from 5 animals 24 h post injection of 12 nmol IRDye800CW-AE344.
Liver and kidney tissue was formalin fixed and paraffin embedded. Sections of 2-4 um thick were cut and a routine staining panel applied including: H&E, modified sirius, PAS and Masson trichome for both and additional PAS with silver for kidneys and PAS with diastase, iron, reticulin artisan and oxidized orcein for the livers. Livers were immunohistochemically stained, immunohistochemical evaluation on 3 µm thick sections was done using the CK7 antibody from Dako/Agilent, GA619 (clone OV-TL12/30) following the manufacturer's instructions. The staining took place on the Omnis from Agilent utilizing the EnVision Flex+ detection kit (GV800). The primary antibody was diluted using Antibody Diluent (Dako DM830) and were incubated for 20 min. The sections were counterstained with hematoxylin.

uPAR-expressing tumors = conditions: cited from earlier work; for time of maximal TBR: previous probes
Protocol: Compared to our previous probes, ICG-2Glu-AE105 and CH1055-4Glu-AE105, we improved several features. Importantly, the route of excretion changed from liver to kidneys leading to improved pharmacokinetics with faster excretion. Maximal TBR decreased from 15 h and 96 h of ICG-Glu-Glu-AE105 and CH1055-4Glu-AE105, respectively to 3 h with the current new probe.

[8] = molecular target: T1, urokinase-type Plasminogen Activator Receptor (uPAR) (UniProt Q03405 23-305); experiment: cell-based or functional assay
[9] = molecular target: T1, urokinase-type Plasminogen Activator …; experiment: SPR; competition in solution, Biacore 3000: pro-uPA S356A immobilised on a CM5 chip (>5000 RU, mass transport limited); 2 nM uPAR incubated with a 3-fold dilution series of peptide (0.076 nM to 1.5 uM), 300 sec, 20 °C, 50 uL/min; 10 mM HEPES, 150 mM NaCl, 3 mM EDTA, 0.05% P20, pH 7.4; conditions: both partners purified

T1 sequence (Q03405 23-305): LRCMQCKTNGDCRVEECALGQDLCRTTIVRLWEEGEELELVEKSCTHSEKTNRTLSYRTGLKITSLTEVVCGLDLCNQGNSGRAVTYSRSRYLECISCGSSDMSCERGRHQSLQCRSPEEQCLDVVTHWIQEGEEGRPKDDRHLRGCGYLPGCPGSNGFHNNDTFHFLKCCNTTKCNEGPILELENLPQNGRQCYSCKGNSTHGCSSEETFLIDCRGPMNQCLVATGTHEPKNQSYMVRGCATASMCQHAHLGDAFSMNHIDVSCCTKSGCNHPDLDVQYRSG

CC(C)C[C@H](NC(=O)[C@H](Cc1ccc(O)cc1)NC(=O)[C@@H](CCCNC(=N)N)NC(=O)[C@@H](CO)NC(=O)[C@H](Cc1ccccc1)NC(=O)[C@H](CC1CCCCC1)NC(=O)[C@H](CC(=O)O)NC(=O)COCCOCCNC(=O)COCCOCCNC(=O)[C@H](CCC(=O)O)NC(=O)[C@H](CCC(=O)O)NC(=O)CCCCC[N+]1=C(/C=C/C2=C(Oc3ccc(S(=O)(=O)O)cc3)C(=C/C=C3/N(CCCCS(=O)(=O)[O-])c4ccc(S(=O)(=O)O)cc4C3(C)C)/CCC2)C(C)(C)c2cc(S(=O)(=O)O)ccc21)C(=O)N[C@@H](Cc1c[nH]c2ccccc12)C(=O)N[C@@H](CO)C(=O)O
Stokes shift: 10 nm
excitation peak λexcit,max [1]: 784 nm
emission peak λemis,max [2]: 794 nm
absorption maximum λabs,max [3]: 777 nm

NCC(=O)CCC(=O)O [5-ALA]
postoperative residual tumor on histology after guided surgery (orthotopic PDX GBM): clearly showed residual tumor
low-grade gliomas showing visible fluorescence (glioma): approximately 20%
frequency of the most common early severe adverse events (glioma; hemiparesis, aphasia, convulsions, epidural hematoma, WL group 4 of 131): 11 of 139
rate of complete resection of the tumor (glioma; phase III clinical trial, 5-ALA vs WL surgery (36% with WL)): 65%

CC(C)C[C@H](NC(=O)[C@H](Cc1ccc(O)cc1)NC(=O)[C@@H](CCCNC(=N)N)NC(=O)[C@@H](CO)NC(=O)[C@H](Cc1ccccc1)NC(=O)[C@H](CC1CCCCC1)NC(=O)[C@H](CC(=O)O)NC(=O)COCCOCCNC(=O)COCCOCCNC(=O)[C@H](CCC(=O)O)NC(=O)[C@H](CCC(=O)O)NC(=O)CCCCC[N+]1=C(/C=C/C2=C(Oc3ccc(S(=O)(=O)O)cc3)C(=C/C=C3/N(CCCCS(=O)(=O)O)c4ccc(S(=O)(=O)O)cc4C3(C)C)/CCC2)C(C)(C)c2cc(S(=O)(=O)[O-])ccc21)C(=O)N[C@@H](Cc1c[nH]c2ccccc12)C(=O)N[C@@H](CO)C(=O)O [IRDye800CW-AE344]
fold change in relative fluorescence units (RFU) compared to untreated spheroids [4]: 5.3 fold
remaining at 6 h, 1.5 µM ([5]; 6 h): 73%
remaining at 12 h, 1.5 µM ([5]; 12 h): 67%
remaining at 6 h [6]: 61%
MFI in liver ([7]; n=2, exposure time 333 ms): 88 a.u.
MFI in lungs ([7]; n=2, exposure time 333 ms): 101 a.u.
MFI in normal brain tissue ([7]; n=2, exposure time 333 ms): 19 a.u.
MFI in skin ([7]; n=2, exposure time 333 ms): 99 a.u.
MFI in kidneys ([7]; n=2, acquired at 40 ms and extrapolated to 333 ms): 1,236 a.u.
kidney histology (liver and kidneys): normal with preserved glomeruli and tubules without atrophy, inflammation, or fibrosis
liver histology (liver and kidneys): normal with lobular configuration without inflammation, fibrosis, cholestasis or deposits

CH1055-Glu-Glu-Glu-Glu-AE105 [CH1055-4Glu-AE105, previous uPAR probe with NIR-II fluorophore CH1055]
TBR of previous probes (uPAR-expressing tumors): 2.7
time of maximal TBR (uPAR-expressing tumors): 96 h

ICG-Glu-Glu-AE105 [previous fluorescently labeled uPAR probe with ICG]
TBR of previous probes (uPAR-expressing tumors): 3.5
time of maximal TBR (uPAR-expressing tumors): 15 h

{IRDye800CW′}-EE[AEEA][AEEA]D[Cha]F[dS][dR]YLWS-OH (also: X3-X4: OEG2 linker between Glu-Glu and AE105) [IRDye800CW-AE344]
normalized tumor-to-background ratio (TBR), NIR imaging of cross sectioned brains with orthotopic GBM in mice, 3 nmol IRDye800CW-AE344 (active), 1 h [8]: 6.6
normalized tumor-to-background ratio (TBR), NIR imaging of orthotopic GBM in mice, 3 nmol IRDye800CW-AE344 blocked by co-administered AE120 (the dimer version of the AE105), 1 h [8]: 4.6
IC50 [9]: 20 nM

B1: AE105 (peptide)
chain: DAFSRYLWS
modifications: 9-mer; residue 2 Cha (cyclohexylalanine), residue 4 D-Ser, residue 5 D-Arg; C-terminal free acid. Sequence not printed: taken from the core of the related antagonist peptide AE147 in 1YWH, with D-Arg
IC50 [9]: 7.8 nM
